From patent US20250161428A1, “PREVENTING/TREATING PSEUDOMONAS AERUGINOSA INFECTION” (priority 2022, published 2025)

B1: 3C4: mouse IgG2b monoclonal antibody to the A-PS terminus; VH SEQ ID NO: 22, VL SEQ ID NO: 26 (antibody, V domains shown)
VH: EVKLVESGGGLVQPGGSLRLSCATSGFTFTDYYMSWVRQPPGKALEWLGFIRNKANGYTTEYSASVKGRFTISRDNSQSILYLQMNTLRAEDSATYYCTRAIYYGYDGFAYWGQGTLVTVSA
VL: DAVMTQTPLSLPVSLGDQASISCRSSQSLENSNGNTYLNWYLQKPGQSPQLLIYRVSNRFSGVLDRFSGSGSGTDFTLKISRVEAEDLGVYFCLQVTHVPFTFGSGTKLEIK
B2: 1B1: mouse IgM monoclonal antibody to the A-PS terminus; VH SEQ ID NO: 4, VL SEQ ID NO: 8 (antibody, V domains shown)
VH: DVKLVESGGGLVKVGGSLKISCAASGFPFSDYYMAWVGQTPEKRLELVAAINGDGGTTYYPDTVKGRFIISRDNAKNTLYLQMSSLRSEDTALYYCVRGRRITGTGAIDYWGQGTSVTVSS
VL: QIFLTQSPVILSASPGEKVTMTCSATSNISYMYRYQQKPGSSPKPWIYGTSNLASRVPARFSGSGSGTSYSLTISNMEAEDAATYYCQIYHSYPYTFGGGTKLEIK

Legend:
[1] = test system: killed whole cells of P. aeruginosa strains; test: ELISA binding of mAbs to killed whole cells; settings: for range of P. aeruginosa strains recognised: summary statement, serotype strains and clinical isolates
Experimental: FIGS. 11A, 11B, and 11C show ELISA analysis of binding of 1B1 (FIG. 11A), 3B8 (FIG. 11B), and 3C4 (FIG. 11C) purified monoclonal antibodies (mAbs) (all at 100 μg/ml) to killed whole cells of P. aeruginosa strains NRCC #'s 6678, 6668-70, 6954-60 and negative control strains M. catarrhalis 6541 and N. meningitidis 6263 (see Table 1 for full details of strains).
(§1) ELISA: The binding of anti-P. aeruginosa A-band terminal epitope mAbs and polyclonal sera to BSA conjugates, purified LPS and to whole cells was evaluated by ELISA as described previously.

purified PAO1 LPS = test: mAb competition ELISA; type: binding, P. aeruginosa; settings: PAO1 LPS coated plates; 3C4 at 62.5 μg/ml
Experimental: (§2) The plate was washed and mAb 3C4 was added at a constant concentration (62.5 μg/ml). A secondary mAb specific for mAb 3C4 was added and absorbance was measured after a colour reagent was added (line with square markers). The absorbance obtained when 3C4 was added to the plate without 1B1 competition is shown by the line with a triangle marker.
as §2, with “to” for “to the”, “3B8” for “1B1”
mAb competition ELISA: Wells of Nunc Maxisorp EIA plates were coated with 1 μg of P. aeruginosa LPS in PBS overnight at 4° C. and then brought to RT before use. Plates were blocked with 1% BSA-PBS for 1 h at RT, and then wells were washed with PBS-T. One mAb (1B1 or 3B8) was titrated and added to the plate for 1 h at RT. Following washing with PBS-T, the second mAb (3C4) was added at a pre-determined concentration and allowed to incubate for 1 h at RT. Following washing with PBS-T, AP-labeled goat anti-mouse IgG2b (Southern Biotech) specific for mAb 3C4, diluted 1:250 in 1% BSA-PBS was added for 1 h at RT. The plates were then washed with PBS-T and developed with Phosphatase Substrate System (Kirkegaard and Perry Laboratories). After 60 min absorbance was measured at 405 nm using a microtiter plate reader.

[2] = test system: purified LPS antigens of P. aeruginosa strains; test: ELISA binding of mAbs to purified LPS
Experimental: as §1

Molecule | range of P. aeruginosa strains recognised [1] | epitope relation in competition ELISA with mAb 3C4 (purified PAO1 LPS) | recognition of purified LPS from A-band locus mutants PAO1 (wzy::Gm)(Δpa5457) and PAO1 (wzy::Gm)(Δpa5458) [2] | cross reactivity to a set of clinical isolates ([1]; killed whole cells, purified mAbs at 100 μg ml^−1) | cross reactivity to killed whole cells of A-band locus mutants and ATCC type strains of common clinical serotypes ([1]; purified mAbs at 100 μg/ml)
B1 | recognition restricted to the wt serotype 5 strains PAO1 BAA-47 and 5937 | recognised similar overlapping epitopes | – | – | –
B2 | majority of P. aeruginosa strains tested were recognised | recognised a unique epitope compared to 3C4 | could recognise | broad cross reactivity | the only mAb that was cross reactive
